Experiment [1] addresses T1, full-length human CEA on cells (MKN45, LOVO, L929/huCEA, CT26/CEA, CT26-OS8-CEA) (human, UniProt P06731 35-685).
T1 construct: also called CEACAM5; native CEA
T1 sequence: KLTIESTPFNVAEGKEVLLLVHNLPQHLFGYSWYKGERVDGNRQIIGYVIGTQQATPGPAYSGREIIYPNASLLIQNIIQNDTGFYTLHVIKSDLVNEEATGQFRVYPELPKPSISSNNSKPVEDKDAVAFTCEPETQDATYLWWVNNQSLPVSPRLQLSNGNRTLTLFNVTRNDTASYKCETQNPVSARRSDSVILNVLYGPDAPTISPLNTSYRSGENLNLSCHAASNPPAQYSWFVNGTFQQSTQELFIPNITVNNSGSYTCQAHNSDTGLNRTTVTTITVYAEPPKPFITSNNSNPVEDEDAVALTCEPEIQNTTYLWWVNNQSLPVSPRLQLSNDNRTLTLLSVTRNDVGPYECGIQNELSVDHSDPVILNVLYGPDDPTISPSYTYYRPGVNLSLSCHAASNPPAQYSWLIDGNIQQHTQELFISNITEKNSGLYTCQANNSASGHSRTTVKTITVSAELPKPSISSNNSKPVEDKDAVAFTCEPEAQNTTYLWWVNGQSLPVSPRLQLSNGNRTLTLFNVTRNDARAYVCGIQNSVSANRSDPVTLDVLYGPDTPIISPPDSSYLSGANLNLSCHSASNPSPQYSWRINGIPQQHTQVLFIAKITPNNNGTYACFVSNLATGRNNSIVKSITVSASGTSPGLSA
Kind of experiment: FACS on CT26-OS8-CEA cells.

Experiment [2] addresses T2, full-length human CD137 on cells (Hut78/huCD137, HEK293 transfectants, JK-NFKB-CD137) (human, UniProt Q07011 24-255).
T2 construct: also called native CD137; TNFRSF9
Description: FACS on HuT78/CD137 cells.

In experiment [3] the target is T3, soluble human CEA, amino acids 1-687 of huCEA with C-terminal 6xHis tag (human, UniProt P06731 35-687).
T3 construct: also called sCEA; soluble huCEA
T3 sequence: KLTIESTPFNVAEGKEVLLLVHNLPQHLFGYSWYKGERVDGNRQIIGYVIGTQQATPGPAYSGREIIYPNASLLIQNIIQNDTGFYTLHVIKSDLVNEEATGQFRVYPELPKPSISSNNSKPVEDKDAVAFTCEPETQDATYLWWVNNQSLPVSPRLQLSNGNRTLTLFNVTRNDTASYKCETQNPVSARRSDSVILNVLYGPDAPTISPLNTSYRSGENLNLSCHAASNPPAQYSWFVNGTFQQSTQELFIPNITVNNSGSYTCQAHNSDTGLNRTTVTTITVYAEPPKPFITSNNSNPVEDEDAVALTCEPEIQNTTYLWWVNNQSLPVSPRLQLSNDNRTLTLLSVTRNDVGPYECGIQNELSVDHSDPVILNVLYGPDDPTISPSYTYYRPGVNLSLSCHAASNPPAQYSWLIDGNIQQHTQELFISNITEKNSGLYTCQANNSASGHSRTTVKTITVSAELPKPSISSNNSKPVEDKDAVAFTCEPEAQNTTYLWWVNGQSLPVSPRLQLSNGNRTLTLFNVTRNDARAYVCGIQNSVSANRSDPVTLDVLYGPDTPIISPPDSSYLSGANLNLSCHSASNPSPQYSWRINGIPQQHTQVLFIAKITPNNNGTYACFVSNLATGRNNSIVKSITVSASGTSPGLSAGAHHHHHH
Kind of experiment: SPR, Human CEA. Background: Surface plasmon resonance follows binding to a sensor surface in real time, without labels.

Another experiment concerns the target T4, human CD137 ECD-mIgG2a (human).
T4 construct: ECD 24-183 of huCD137 fused to mouse IgG2a Fc; also called huCD137-mIgG2a; huCD137
Kind of experiment: SPR, Human CD137.

We go through one molecule from US20240190989A1 (BEIGENE SWITZERLAND, published 2024).

Values joined by “and” are separate entries in the source; they are usually repeats but may differ in a detail not shown here. Equal entries are not always repeated.

T2 sequence (Q07011 24-255 limits assumed): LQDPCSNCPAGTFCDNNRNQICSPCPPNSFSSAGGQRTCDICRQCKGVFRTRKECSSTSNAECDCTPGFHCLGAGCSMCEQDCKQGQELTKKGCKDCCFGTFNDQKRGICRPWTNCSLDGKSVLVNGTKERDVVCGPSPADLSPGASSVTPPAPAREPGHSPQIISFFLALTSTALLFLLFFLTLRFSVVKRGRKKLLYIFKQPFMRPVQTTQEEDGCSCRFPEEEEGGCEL

B1: BE-146 (CEAxCD137 multispecific antibody) (bispecific antibody, human IgG1, kappa)
heavy: QVQLVQSGAEVKKPGASVKVSCKASGYIFTSYYLHWVRQAPGQGLEWIGYINPQTGKTSYAQKFQGRVTMTRDTSTSTVYMELSSLRSEDTAVYYCAREYGNYNYPLDYWGQGTLVTVSSASTKGPSVFPLAPSSKSTSGGTAALGCLVKDYFPEPVTVSWNSGALTSGVHTFPAVLQSSGLYSLSSVVTVPSSSLGTQTYICNVNHKPSNTKVDKKVEPKSCDKTHTCPPCPAPPAAGPSVFLFPPKPKDTLMISRTPEVTCVVVDVSHEDPEVKFNWYVDGVEVHNAKTKPREEQYNSTYRVVSVLTVLHQDWLNGKEYKCKVSNKALAAPIEKTISKAKGQPREPQVYTLPPSREEMTKNQVSLTCLVKGFYPSDIAVEWESNGQPENNYKTTPPVLDSDGSFFLYSKLTVDKSRWQQGNVFSCSVMHEALHNHYTQKSLSLSPGKGGGGSEVQLLESGGGLVQPGGSLRLSCAASGFTVSAEDVGWVRQAPGKGLEWVSAILDKGGSTYYAESVKGRFTISRDNAKNTLYLQMSSLRAEDTAVYYCARIVYHAGGGVTFDTRGQGTQVTVSS
light: DIQMTQSPSSLSASVGDRVTITCRASENQYGYLAWYQQKPGKVPKLLIYNYKNLVEGVPSRFSGSGSGTDFTLTISSLQPEDVATYYCQHHLGTPYTFGQGTKVEIKRTVAAPSVFIFPPSDEQLKSGTASVVCLLNNFYPREAKVQWKVDNALQSGNSQESVTEQDSKDSTYSLSSTLTLSKADYEKHKVYACEVTHQGLSSPVTKSFNRGEC
notes: Module ratio 2:2, Fc null version of huIgG1; copies: 2 + 2
With B1, in experiment [1], the EC50 was 1.53 µg/mL and 8.75 nM. Also, the EC50 in experiment [2] was 2.26 µg/mL and 12.9 nM. In experiment [3], this molecule displayed a Kd of 3 nM, a koff of 0.000295 s⁻¹ and a kon of 98500 M⁻¹ s⁻¹. In the experiment with human CD137 ECD-mIgG2a, this molecule registered a Kd of 36.2 nM, a koff of 0.00469 s⁻¹ and a kon of 130000 M⁻¹ s⁻¹.

For orientation: EC50 means the midpoint of the concentration-response curve. The low end stands for higher potency in that assay, the high end for lower potency in that assay. As usually defined, the Kd is the free concentration of one partner at which half of the binding sites on the other are occupied at equilibrium, for simple one-to-one binding. The low end stands for higher affinity, the high end for lower affinity. One may read the koff as the first-order rate constant of dissociation. Lower therefore signals slow dissociation. Usually kon stands for a measure of how fast the partners come together. A high value points to fast association.
